Laboratory results: patent US20240009240A1 (published 2024)

B1: EGFRA11 TCRA11-7-8 (TCR, V domains shown)
Valpha: RKEVEQDPGPFNVPEGATVAFNCTYSNSASQSFFWYRQDCRKEPKLLMSVYSSGNEDGRFTAQLNRASQYISLLIRDSKLSDSATYLCVVIGGGADGLTFGKGTHLIIQP
Vbeta: GVIQSPRHEVTEMGQEVTLRCKPISGHDYLFWYRQTMMRGLELLIYFNNNVPIDDSGMPEDRFSAKMPNASFSTLKIQPSEPRDSAVYFCASRNGPEAFFGQGTRLTVV
B2: EGFRA11 TCRA11-7-18 (TCR, V domains shown)
Valpha: B1 Valpha
Vbeta: EPEVTQTPSHQVTQMGQEVILRCVPISNHLYFYWYRQILGQKVEFLVSFYNNEISEKSEIFDDQFSVERPDGSNFTLKIRSTKLEDSAMYFCASSGQGDLLYGYTFGSGTRLTVV
B3: EGFRA11 TCRA11-7-12 (TCR, V domains shown)
Valpha: B1 Valpha
Vbeta: GVTQSPTHLIKTRGQQVTLRCSSQSGHNTVSWYQQALGQGPQFIFQYYREEENGRGNFPPRFSGLQFPNYSSELNVNALELDDSALYLCASSVGGDTEAFFGQGTRLTVV
B4: EGFRA11 TCRA11-6 (TCR, V domains shown)
Valpha: QKITQTQPGMFVQEKEAVTLDCTYDTSDQSYGLFWYKQPSSGEMIFLIYQGSYDEQNATEGRYSLNFQKARKSANLVISASQLGDSAMYFCAMNTGFQKLVFGTGTRLLVSP
Vbeta: DAGVIQSPRHEVTEMGQEVTLRCKPISGHDYLFWYRQTMMRGLELLIYFNNNVPIDDSGMPEDRFSAKMPNASFSTLKIQPSEPRDSAVYFCASRNGPEAFFGQGTRLTVV
B5: #1. EGFRA11 TCRA11-6; TRAV14DV4*02 J8*01/TRBV12-4*01 C1 J1-1*01 (TCR)
TCR alpha: QKITQTQPGMFVQEKEAVTLDCTYDTSDQSYGLFWYKQPSSGEMIFLIYQGSYDEQNATEGRYSLNFQKARKSANLVISASQLGDSAMYFCAMNTGFQKLVFGTGTRLLVSPNIQNPDPAVYQLRDSKSSDKSVCLFTDFDSQTNVSQSKDSDVYITDNAVLDMRSMDFKSNSAVAWSNKSDFACANAFNNSIIPEDTFFPSPESSCDVKLVEKSFETDTNLNFQNLSVIGFRILLLKVAGFNLLMTLRLWSSRAKRSGSGATNFSLLKQAGDVEENPGP
TCR beta: GVIQSPRHEVTEMGQEVTLRCKPISGHDYLFWYRQTMMRGLELLIYFNNNVPIDDSGMPEDRFSAKMPNASFSTLKIQPSEPRDSAVYFCASRNGPEAFFGQGTRLTVVEDLNKVFPPEVAVFEPSEAEISHTQKATLVCLATGFFPDHVELSWWVNGKEVHSGVCTDPQPLKEQPALNDSRYCLSSRLRVSATFWQNPRNHFRCQVQFYGLSENDEWTQDRAKPVTQIVSAEAWGRADCGFTSVSYQQGVLSATILYEILLGKATLYAVLVSALVLMAMVKRKDF

Columns and labels:
[1] = biological target: T1, EGFR L858R peptide on HLA-A*11:01 (human); test: multimer staining
T1 peptide: KITDFGRAK

[2] = biological target: T1, EGFR L858R peptide on HLA-A*11:01; test: killing
[3] = biological target: … (SEQ ID NO:71) presented on HLA-A*1101 on HLA-A*1101-transduced 293 target cells (human); test: cell-based or functional assay

| Binder | binding result [1] | also measured |
| --- | --- | --- |
| B1 | recognises |  |
| B2 | recognises |  |
| B3 | recognises |  |
| B4 |  | binding result [2]: recognises |
| B5 |  | specific lysis of 293A11 cells pulsed with different amounts of EGFR-A11 peptide, T cells expressing TCR6 construct at a 20:1 ratio (Cr51 release) [3]: 20 ng/mL |
